Results: the nanobody polyreactivity screen of Harvey et al. (2022)

Assay: yeast display, Sf9 membrane polyspecificity reagent, FACS + sequencing; frameworks hold sequencing errors
Outline: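 Galactose induction of a Saccharomyces cerevisiae BJ5465 synthetic nanobody display library ran 36–48 hours. The cells were then stained for 1 hour at 4 °C with 10% biotinylated, detergent-solubilized Sf9 membrane reagent, pulled down on streptavidin microbeads and FACS-sorted into low and high (top ~1%) gates on expression and reagent-binding fluorescence. Labels for polyreactivity follow the gate of origin.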

Sequence | polyreactivity (PSR sort gate)
QVQLVESGGGLVQAGGSLRLSCAASGRTINRYAMGCYRHAPGKERELVAAINSVGSTYYADSVKGRFTISRDNAKYTVYLQMNSLKPEDTAVFYCNAVQGSRFGYWGEGTQVTVSS | high polyreactivity
QVQLVESGGGLVQAGGSLRLSCAASGRTIPAYAMGWYRQAPGKERELVAAISWGGGSTYYADSVKGRFTISRDNAKNTVYLQMNSLKPEDTAVYYCAVAGYWFAVAEYDYWGQGTQVTVSS | low polyreactivity
QVQLVESGGGLVQAGGSLRLSCAASGRTIRLYAMGWYRQAPGQERELVAAITRGGRTNYADSVKGRFTISRDNAKNTVYLQMNSLKPEDTAVYYCAARYVERHTDYYYWGQGTQVTVSS | low polyreactivity
QVQLVESGGGLVQAGGSLRLSCAASGRTIRWNAMGWYRQAPGKERELVAAIDSVDNTYYADSVNGRFTISRDNAKNTVYFQMNSLKPEDTAVYYCARDTYWQVQMDYWGQGTQVTVSS | low polyreactivity
QVQLVESGGGLVQAGGSLRLSCAASGRTIRWNAMGWYRQAPGKERELVGAIDSVDNTYYADSVKGRFTISRYNAKNTVYLQMNSLKPEDTGVYYCARDPYWQVQMDYWGQGTQVTVSS | low polyreactivity
QVQLVESGGGLVQAGGSLRLSCAASGRTIRYYAMGWYRQAPGKERELVAAITWSVGSTYYADSVKGRFTISRDNAKNTVYLQMNSLKPEDTAVYYCAARLYQLYYWGQGTQVTVSS | high polyreactivity
QVQLVESGGGLVQAGGSLRLSCAASGRTISYNTMGWYRQARGKERELVARITWGGGSTNYADSVKGSFTISRDNAKNTVYLQMNSLKPEDTAVYYCAREYSSVYWVRHLFYYWGQGTQVTVSS | low polyreactivity
QVQLVESGGGLVQAGGSLRLSCAASGRTITRYTMGWYRQAPGKERELVAAIRYSGGSTYYADSVKGRFTISRDTAKNTIYLQMNSLKPEDTAVYYCAARSYYYGFLYSYDYWGQGTQVTVSS | low polyreactivity
QVQLVESGGGLVQAGGSLRLSCAASGRTITYYAMGWYRQAPGKERELVAAITWSGGSTYYADSVKGRFTISRDNAKNTVYLQMNSLKPEDTAVDYCAKEFYYSSGFDYWGQGTQVTVSS | low polyreactivity
QVQLVESGGGLVQAGGSLRLSCAASGRTIVTNAMGWYRQAPGKERELVAAITTRGSRTYYADSVKGRFTISRDNAKNTVYLQMNSLKPEDTAVYYCAAKQKHTQQTGWKYEYWGQGTQVTVSS | high polyreactivity
QVQLVESGGGLVQAGGSLRLSCAASGRTIVYYAMGRYRQAPGKERELVAAISSSGSTYYADSVKGRFTISRDNAKNTVYLQMNSLKPEDTAVYYCATTHDYWLWGMGYWGQGTQVTVSS | high polyreactivity
QVQLVESGGGLVQAGGSLRLSCAASGRTIYKYMGWDRQAPGKERELVAAIRWSGGSTYYADSVKGRFTISRDNAKNTVYLQMNSLKPEETAVYYCNVDSYGYKYDYWGQGTQVTVSS | low polyreactivity
QVQLVESGGGLVQAGGSLRLSCAASGRTIYRNAMGWYRQAPGKERELVAAISRSGGRTFYAYSVKGRFTISRDNAKNTVYLQMNSLKPEDTEVYYCADESYGVRLPSGYWGQGTQVTVSS | high polyreactivity
QVQLVESGGGLVQAGGSLRLSCAASGRTLADNAMGWYRQAPGKERELVAAITFSGDTTYYADSVKGRFTISRDNAKNTVYLQMNSLKPEDTAVYYCAAESSDPRAYDYWGQGTQVTVSS | low polyreactivity
QVQLVESGGGLVQAGGSLRLSCAASGRTLARNAMGWYRQAPGKERELVASINGRTTRTYYADSVKGRFTISRDNAKNTVYLQMNSLKPEDPAVYYCAARATNVYSKMDYWGQGTQVTVSS | high polyreactivity
QVQLVESGGGLVQAGGSLRLSCAASGRTLARYAMGGYRQAPGKERELVAAISSSGGSTYYADSVKGRFTISRDNAKNTVYLQMNSLKPEDTAVYYCAAGWRYRYFRSRNFYPYYYWGQGTQVTVSS | high polyreactivity
QVQLVESGGGLVQAGGSLRLSCAASGRTLASYGMGWYRQAPGKERELVAAISSRGGTTYYADSVKGRFTISRDNAKNTVYLQMNSLKPEDTAVYYCAKPGRYWGQGTQVTVSS | high polyreactivity
QVQLVESGGGLVQAGGSLRLSCAASGRTLATYAMGWYRQAPGKERELVADISWRGGTTYYADSVKGRFTISRDNAKNTVYLQMNSLKPEDTAVYYCAKRFLFHSYYWGQGSQVTVSS | high polyreactivity
QVQLVESGGGLVQAGGSLRLSCAASGRTLDLYAMGWYRQAPGKERELVAAISWRGGRTYYADSVKGRFTISRDNAQTTVYLQMNSLKPEDTAVYYCKADYPWSVVGYDYWGQGTQVSVSS | low polyreactivity
QVQLVESGGGLVQAGGSLRLSCAASGRTLDSNAMGWYRQAPGKERELVAAISSAGSTNYADSVKGRFTISRDNAKNTVYLQMNRLQPEDTAVYYCAADLIGSHDYWGQGTQVTVSS | low polyreactivity
QVQLVESGGGLVQAGGSLRLSCAASGRTLEHNAMGWYRQAPGKERELVAAITDGGASTYYADSVKGRFTISRENAKNTVYLQMNSLKPEDTAVYYFAADTYPTTSEFDYWGQGTQVTVSS | low polyreactivity
QVQLVESGGGLVQAGGSLRLSCAASGRTLFHYAMGWYRQAPGKERELVAAIRNSDGSTYYADSVKGRFTISRDNAKNSVYLQMNSLKPEDTGDYNCAAKYKYGTYNYWGQGSQVTVSS | high polyreactivity
QVQLVESGGGLVQAGGSLRLSCAASGRTLFPNVMGWYRQAPGKERELVAAITTIGGSTYYADSVKGRFTISRDNGKNTVFLQMNSLKPEDTEVYYCNARYRGRGLKFAYWGQGTQVTVSS | high polyreactivity
QVQLVESGGGLVQAGGSLRLSCAASGRTLGGNAMGWYRQAPGQERELVAAITNSASTYADSVKGRFTISRDNAKNTVYIQMNSLKPEDTAVYYCTAPDPSDQNGDYWGQGTQVTVSS | low polyreactivity
QVQLVESGGGLVQAGGSLRLSCAASGRTLGQNVMGWYRQAPGKERELVAAISSNTAGNTYYADSVKGRFTISRDNAKNTVYLQMNSLKPEDTAVYYCAIVDSFEAILDYWGQGTQVTVSS | low polyreactivity
QVQLVESGGGLVQAGGSLRLSCAASGRTLGRNAMGWYRQAPGKERELVASISSGGSTNYADSVKGRFTISRDNAKNTVYLQMNSLKPEDTAVYYCNKRYRSLYSSGYDYWGQGTQVTVSS | high polyreactivity
QVQLVESGGGLVQAGGSLRLSCAASGRTLGRYAMGWYRPAPGKERELVAAITRRGGITYYADSVKGRFTISRDNAKNTVYLQMNSLKPEDTAVYYCNAVNKSLQPVRDVYPLYRHDYWGQGTQVTVSS | high polyreactivity
QVQLVESGGGLVQAGGSLRLSCAASGRTLGRYAMGWYRQAPGKERELVAAINVGGGTTHYADSVKGRFTISRDNAKNTVYLQMNSLKPEDTAVYYCAAYRYTYGDRHAYDYWGQGTQVTVSS | low polyreactivity
QVQLVESGGGLVQAGGSLRLSCAASGRTLGVYAMGWYRQAPGKERELVATITSGDGTNYADSVKGRFTISRDNAKNTVYLQMNSLKPVDTAVYYCNAEAKSQWFVYPYWYWPLYDYWGPGTQVTVSS | low polyreactivity
QVQLVESGGGLVQAGGSLRLSCAASGRTLHKNVMGWYRQAPGKERELVAAINTGGRTYYADSVKGRFTISRDNAKNTVYLQMNSLKREDTAVYYCAKEGHVNPRPTVGGDYWGQGTQVTVSS | low polyreactivity
